These results are taken from patent US20100166827A1.

This experiment concerns the target αVβ1/3/5 integrins located in the cardiomyocyte cell membrane. Put plainly: cell-based or functional assay.

“Recombinant periostin, purified from HEK293 cells expressing the full-length human cDNA (from UniProt Q15063 22-836) (ligand)” yielded a half-maximal stimulation of DNA synthesis in primary neonatal rat ventricular cardiomyocytes (BrdU uptake) of 155 nM.
